Test results from patent publication US20140348785A1.

Molecular target: biotinylated gp41 MPER peptide RRR-(656-683)-RRK-biotin (HIV-1)
Test: SPR: biotinylated MPER peptide on an SA chip, Fab as analyte, 1:1 Langmuir fit

Substance: 2F5 Fab
- Kd: 3.8 nM

Substance: 4E10 Fab
- Kd: 0.74 nM
